Data on one substance can be found in article PMC9179922.

The target of the assay is Strep-tagged recombinant plasminogen activator inhibitor 1 (PAI-1) (human) (UniProt P05121). As to the kind of experiment: pull-down; affinity chromatography: purified Strep-tagged PAI-1 (75 µL, 100 µg/mL) immobilised on Strep-Tactin Sepharose gravity flow columns; 2.0 mL medium with untagged vitronectin loaded and incubated 1 h; six washes with Buffer W, elution with Buffer E; Western blot with densitometry. (In general: In western blotting, separated proteins are transferred to a membrane and probed.)
Chain of UniProt P05121 (P05121 24-402): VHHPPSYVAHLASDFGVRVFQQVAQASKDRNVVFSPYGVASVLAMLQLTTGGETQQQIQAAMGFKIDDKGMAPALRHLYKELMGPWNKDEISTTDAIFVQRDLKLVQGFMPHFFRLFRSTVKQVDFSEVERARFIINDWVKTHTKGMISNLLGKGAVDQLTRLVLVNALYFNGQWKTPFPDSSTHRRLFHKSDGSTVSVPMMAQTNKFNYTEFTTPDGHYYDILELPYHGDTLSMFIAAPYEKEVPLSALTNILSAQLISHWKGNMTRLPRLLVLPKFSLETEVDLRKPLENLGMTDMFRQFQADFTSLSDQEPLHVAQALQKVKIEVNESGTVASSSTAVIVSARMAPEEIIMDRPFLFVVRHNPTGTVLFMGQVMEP

On to “untagged vitronectin isoform VTN_rs704: T (AMD risk-associated, Met400) (natural protein)”, for which the fold of vitronectin in the elution fraction against VTN rs704: C was 2.28 fold.
